Data: PMC6224477

B1: endogenous ZNF598 (enzyme)
chain: MAAAGGAEGRRAALEAAAAAAPERGGGSCVLCCGDLEATALGRCDHPVCYRCSTKMRVLCEQRYCAVCREELRQVVFGKKLPAFATIPIHQLQHEKKYDIYFADGKVYALYRQLLQHECPRCPELPPFSLFGDLEQHMRRQHELFCCRLCLQHLQIFTYERKWYSRKDLARHRMQGDPDDTSHRGHPLCKFCDERYLDNDELLKHLRRDHYFCHFCDSDGAQDYYSDYAYLREHFREKHFLCEEGRCSTEQFTHAFRTEIDLKAHRTACHSRSRAEARQNRHIDLQFSYAPRHSRRNEGVVGGEDYEEVDRYSRQGRVARAGTRGAQQSRRGSWRYKREEEDREVAAAVRASVAAQQQEEARRSEDQEEGGRPKKEEAAARGPEDPRGPRRSPRTQGEGPGPKETSTNGPVSQEAFSVTGPAAPGCVGVPGALPPPSPKLKDEDFPSLSASTSSSCSTAATPGPVGLALPYAIPARGRSAFQEEDFPALVSSVPKPGTAPTSLVSAWNSSSSSKKVAQPPLSAQATGSGQPTRKAGKGSRGGRKGGPPFTQEEEEDGGPALQELLSTRPTGSVSSTLGLASIQPSKVGKKKKVGSEKPGTTLPQPPPATCPPGALQAPEAPASRAEGPVAVVVNGHTEGPAPARSAPKEPPGLPRPLGSFPCPTPQEDFPALGGPCPPRMPPPPGFSAVVLLKGTPPPPPPGLVPPISKPPPGFSGLLPSPHPACVPSPATTTTTKAPRLLPAPRAYLVPENFRERNLQLIQSIRDFLQSDEARFSEFKSHSGEFRQGLISAAQYYKSCRDLLGENFQKVFNELLVLLPDTAKQQELLSAHTDFCNREKPLSTKSKKNKKSAWQATTQQAGLDCRVCPTCQQVLAHGDASSHQALHAARDDDFPSLQAIARIIT
B2: ZNF598-TEV-3xFlag (human) (enzyme)
chain: MAAAGGAEGRRAALEAAAAAAPERGGGSCVLCCGDLEATALGRCDHPVCYRCSTKMRVLCEQRYCAVCREELRQVVFGKKLPAFATIPIHQLQHEKKYDIYFADGKVYALYRQLLQHECPRCPELPPFSLFGDLEQHMRRQHELFCCRLCLQHLQIFTYERKWYSRKDLARHRMQGDPDDTSHRGHPLCKFCDERYLDNDELLKHLRRDHYFCHFCDSDGAQDYYSDYAYLREHFREKHFLCEEGRCSTEQFTHAFRTEIDLKAHRTACHSRSRAEARQNRHIDLQFSYAPRHSRRNEGVVGGEDYEEVDRYSRQGRVARAGTRGAQQSRRGSWRYKREEEDREVAAAVRASVAAQQQEEARRSEDQEEGGRPKKEEAAARGPEDPRGPRRSPRTQGEGPGPKETSTNGPVSQEAFSVTGPAAPGCVGVPGALPPPSPKLKDEDFPSLSASTSSSCSTAATPGPVGLALPYAIPARGRSAFQEEDFPALVSSVPKPGTAPTSLVSAWNSSSSSKKVAQPPLSAQATGSGQPTRKAGKGSRGGRKGGPPFTQEEEEDGGPALQELLSTRPTGSVSSTLGLASIQPSKVGKKKKVGSEKPGTTLPQPPPATCPPGALQAPEAPASRAEGPVAVVVNGHTEGPAPARSAPKEPPGLPRPLGSFPCPTPQEDFPALGGPCPPRMPPPPGFSAVVLLKGTPPPPPPGLVPPISKPPPGFSGLLPSPHPACVPSPATTTTTKAPRLLPAPRAYLVPENFRERNLQLIQSIRDFLQSDEARFSEFKSHSGEFRQGLISAAQYYKSCRDLLGENFQKVFNELLVLLPDTAKQQELLSAHTDFCNREKPLSTKSKKNKKSAWQATTQQAGLDCRVCPTCQQVLAHGDASSHQALHAARDDDFPSLQAIARIIT

Legend:
[1] = molecular target: ribosomes (mono- and poly-ribosomes) of HEK293 cells (human (endogenous in HEK293))
[2] = molecular target: di-ribosome translation complex stalled on a poly(A)-containing transcript in rabbit reticulocyte lysate (rabbit (endogenous in reticulocyte lysate)); test: pull-down + co-sedimentation; poly(A)-containing transcript translated in RRL supplemented with FLAG-tagged ZNF598; translation complexes affinity purified via the Twin-Strep tag of the nascent chain (StrepTactin, RNC buffer: 50 mM HEPES pH 7.6, 100 mM KOAc, 5 mM Mg(OAc)2, biotin elution), then sucrose gradient; immunoblot for ZNF598, uL2, eS24

ubiquitinated eS10 (immunoblot) in HEK293 cells pre-treated 15 min with low concentrations of anisomycin, emetine or didemnin B [1] [%] | percent of ZNF598 co-fractionating with ribosomes [2] [%] | Binder
10 |  | B1
 | 70 to 80 | B2
